In experiment [1] the target is SNAP-GAL2R F264^ECL3A (human) (UniProt O43603). In words: AlphaScreen or HTRF; saturation binding: HEK293 cells transfected with SNAP-GAL1R or SNAP-GAL2R (WT or mutants), labelled with SNAP-Lumi4-Tb; increasing concentrations of galanin-A2 with or without 100 uM unlabeled galanin, 1 h at room temperature.
For experiment [2], the target named is SNAP-GAL2R Q82^2.61A (human) (UniProt O43603). The description is as above.
Experiment [3] has as its target SNAP-GAL2R Y271^7.32A (human) (UniProt O43603). Described as above.
Another experiment has as its target T1, SNAP-GAL1R H112^3.29A (human, UniProt P47211 1-349, H112^3.29A, Lumi4-Tb on the SNAP tag).
T1 construct: also called H112A; source: HEK293, transfected, on cells; not shown: SNAP tag, N-terminal, kept
T1 sequence (looked up): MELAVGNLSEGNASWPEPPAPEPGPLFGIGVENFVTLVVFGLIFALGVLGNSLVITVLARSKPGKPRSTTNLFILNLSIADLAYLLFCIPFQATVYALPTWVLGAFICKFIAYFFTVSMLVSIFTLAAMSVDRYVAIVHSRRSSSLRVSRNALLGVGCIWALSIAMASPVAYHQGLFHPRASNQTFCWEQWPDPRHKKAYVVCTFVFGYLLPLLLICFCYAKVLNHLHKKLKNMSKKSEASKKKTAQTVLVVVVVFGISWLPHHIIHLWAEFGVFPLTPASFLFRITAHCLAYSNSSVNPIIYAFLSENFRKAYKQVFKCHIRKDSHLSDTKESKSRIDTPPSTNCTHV
In words: AlphaScreen or HTRF; saturation binding: HEK293 cells transfected with SNAP-tagged receptor (WT or mutant) and labelled with SNAP-Lumi4-Tb, incubated with increasing concentrations of galanin-A2 in the presence or absence of 100 uM unlabeled galanin, 1 h at room temperature; HTRF ratio 665 nm/620 nm. Conditions: one partner purified. (Bead proximity is the source of the signal in Alpha formats.)

The target of another experiment is T2, SNAP-GAL1R Q174^4.64A (human, UniProt P47211 1-349, Q174^4.64A, Lumi4-Tb on the SNAP tag).
T2 construct: also called Q174A; source: HEK293, transfected, on cells; not shown: SNAP tag, N-terminal, kept
T2 sequence (looked up): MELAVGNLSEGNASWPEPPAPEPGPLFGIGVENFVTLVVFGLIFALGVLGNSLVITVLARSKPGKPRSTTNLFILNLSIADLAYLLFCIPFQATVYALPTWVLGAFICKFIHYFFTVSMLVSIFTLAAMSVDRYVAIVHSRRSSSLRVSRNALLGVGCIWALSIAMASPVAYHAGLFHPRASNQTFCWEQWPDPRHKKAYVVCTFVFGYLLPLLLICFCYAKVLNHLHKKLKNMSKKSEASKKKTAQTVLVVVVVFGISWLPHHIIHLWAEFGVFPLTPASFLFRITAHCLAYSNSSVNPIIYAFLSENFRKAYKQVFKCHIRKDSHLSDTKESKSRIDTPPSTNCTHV
Described as above. Conditions: one partner purified.

In a further experiment the target is T3, SNAP-GAL1R F177^ECL2A (human, UniProt P47211 1-349, F177^ECL2A, Lumi4-Tb on the SNAP tag).
T3 construct: also called F177A; source: HEK293, transfected, on cells; not shown: SNAP tag, N-terminal, kept
T3 sequence (looked up): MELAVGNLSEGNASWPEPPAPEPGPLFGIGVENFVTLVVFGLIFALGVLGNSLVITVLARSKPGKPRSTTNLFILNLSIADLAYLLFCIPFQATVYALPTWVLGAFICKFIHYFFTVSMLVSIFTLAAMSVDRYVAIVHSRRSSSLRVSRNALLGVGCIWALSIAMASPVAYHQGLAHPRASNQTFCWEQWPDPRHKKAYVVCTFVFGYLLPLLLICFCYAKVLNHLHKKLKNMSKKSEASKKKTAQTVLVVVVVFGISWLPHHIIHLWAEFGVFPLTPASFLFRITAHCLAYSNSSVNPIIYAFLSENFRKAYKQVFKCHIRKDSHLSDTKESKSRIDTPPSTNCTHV
Described as above. Conditions: one partner purified.

A further experiment has as its target T4, SNAP-GAL1R W260^6.48A (human, UniProt P47211 1-349, W260^6.48A, Lumi4-Tb on the SNAP tag).
T4 construct: also called W260A; source: HEK293, transfected, on cells; not shown: SNAP tag, N-terminal, kept
T4 sequence (looked up): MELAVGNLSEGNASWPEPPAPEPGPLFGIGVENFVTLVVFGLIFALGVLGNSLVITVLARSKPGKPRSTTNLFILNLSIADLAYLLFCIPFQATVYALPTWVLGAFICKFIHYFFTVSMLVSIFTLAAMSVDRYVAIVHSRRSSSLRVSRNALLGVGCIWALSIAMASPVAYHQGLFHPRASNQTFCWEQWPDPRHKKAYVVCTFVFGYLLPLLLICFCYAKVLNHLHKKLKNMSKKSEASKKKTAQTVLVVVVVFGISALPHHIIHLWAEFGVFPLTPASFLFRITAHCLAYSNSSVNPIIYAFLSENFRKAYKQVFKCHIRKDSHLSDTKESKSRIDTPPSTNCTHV
The description is as above. The conditions noted are these: one partner purified.

SNAP-GAL2R Q82^2.61A (human), sequence (O43603 whole entry Q82A): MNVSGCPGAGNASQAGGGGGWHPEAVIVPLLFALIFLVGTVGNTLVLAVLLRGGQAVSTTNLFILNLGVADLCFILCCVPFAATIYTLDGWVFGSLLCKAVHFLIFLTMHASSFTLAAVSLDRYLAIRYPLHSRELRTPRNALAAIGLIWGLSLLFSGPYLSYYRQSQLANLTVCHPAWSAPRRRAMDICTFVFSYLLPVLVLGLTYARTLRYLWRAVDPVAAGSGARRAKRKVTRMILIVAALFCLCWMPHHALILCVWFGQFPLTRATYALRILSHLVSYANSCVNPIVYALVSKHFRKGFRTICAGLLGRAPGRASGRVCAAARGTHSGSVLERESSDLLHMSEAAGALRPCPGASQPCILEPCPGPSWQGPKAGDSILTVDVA
SNAP-GAL2R F264^ECL3A (human), sequence (O43603 whole entry F264A): as the sequence (O43603 whole entry Q82A) above, with A82Q, F264A counted along it
SNAP-GAL2R Y271^7.32A (human), sequence (O43603 whole entry Y271A): as the sequence (O43603 whole entry Q82A) above, with A82Q, Y271A counted along it

B1: galanin-A2 (full-length galanin labeled with the dye A2 on an additional cysteine at the C-terminal end) (peptide)
peptide: GWTLNSAGYLLGPHAVGNHRSFSDKNGLTSC
modifications: dye A2 on the additional C-terminal cysteine
notes: numbers count on: the mature protein; additional cysteine at the C-terminal end of the peptide, carries the dye A2; source: synthetic peptide (synthesized by Vazyme, China)
The term Kd denotes the equilibrium constant for the complex coming apart. Take B1: the Kd was over 500 nM in experiment [1]; over 500 nM in experiment [2]; over 500 nM in experiment [3]; 59.8 nM with SNAP-GAL1R H112^3.29A; 351 nM in the experiment with SNAP-GAL1R Q174^4.64A; 305 nM with SNAP-GAL1R F177^ECL2A. Moreover, the Kd in the experiment with SNAP-GAL1R W260^6.48A is 51.2 nM.
